The values that follow come from patent US20220025032A1 (Novartis, published 2022).

As a reminder, the IC50 is the midpoint of a concentration-inhibition curve. A word on the Kd: it is the concentration at which binding is half-saturated.

The target in experiment [1] is T1, Human VEGF165 (human, UniProt P15692 27-191).
T1 construct: mature; biotinylated in the VEGFR2 ELISAs; also called human VEGF-A; VEGF-A
Description: competition ELISA: antibody pre-incubated with 400 pM VEGF-biotin, added to coated VEGFR2, streptavidin-HRP detection; y axis OD. As to the method:
(§1) The plates were then washed 3 times using 1λTBST. The plates were blocked in 2% BSA diluent (0.1% Tween 20/0.1% TirtonX100) overnight. After blocking, the plates were washed 3 times using TB ST and then the sample mixture was added at 20 μl/well. The sample mixture consisted a final fixed concentration of VEGF-biotin (in-house) at 400 pM and a 15 point 1:2 serial dilution of the antibody starting at 20 nM. The sample mixture was pre-incubated for 1 hour prior to adding to the plate and then incubated for another hour at room temperature on the plate. Afterwards, the plate was washed 3 times using TBST and 20 μl/well of Streptavidin-HRP diluted at 1:5000 was added for an incubation time of 1 hour. The plates were washed 3 times in TBST and then 20 μl/well of TMB substrate was added. TMB is a chromogen that yields a blue color when oxidized. TMB was incubated for 10 minutes until the signal saturated in the no antibody samples, and then 10 μl/well of 2N sulfuric acid was added which then changes the blue color to yellow and this now has a maximum absorbance at 450 nm.
(An ELISA detects its analyte on a solid surface through an enzyme-linked reagent.)

For experiment [2], the target named is T1, Human VEGF165. Kind of experiment: competition ELISA: antibody pre-incubated with biotinylated human VEGF, added to coated human VEGFR2-Fc, streptavidin-HRP detection; blocked partner VEGFR2-Fc. As to the method: NVS11 neutralization of VEGF was determined by ELISA. Various concentrations of NVS11 was pre-incubated with biotinylated human VEGF and added to VEGFR2-Fc coated plates.

In experiment [3] the target is T1, Human VEGF165. Description: SPR Biacore T200, anti-Fab capture, antigen as analyte (cells shifted left after the merged BTC cell). (In general: Surface plasmon resonance follows binding to a sensor surface in real time, without labels.)
Another experiment concerns the target T2, Human BTC-avitag-biotin (human, UniProt P35070 32-111, biotin on the avitag).
T2 construct: also called biotin-BTC; soluble human BTC-avitag-biotin
T2 sequence: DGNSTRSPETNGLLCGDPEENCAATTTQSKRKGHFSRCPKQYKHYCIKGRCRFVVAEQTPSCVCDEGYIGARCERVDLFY
Description: flow cytometry, BTC-ErbB4 Cell Binding Inhibition with HKB11 cells over-expressing human ErbB4. As to the method: In order to assess potency of the Fabs and bispecific in neutralizing binding of BTC to its receptor Erb 1 or ErbB4, the following assay was performed. HKB11 over-expressing either ErbB1 or ErbB4 cells were plated 1×10⁵ cells/well. Cells were washed once with FACS buffer by spun down at 1200 rpm for 5 minutes and supernatant removed. Next, the Fab sample dilutions and BTC were prepared in FACS buffer. Human BTC-avitag-biotin was diluted to a fixed concentration of 15 nM. The test Fab samples were prepared at a starting concentration of 40 nM and titrated for 9 points at a serial dilution of 1:2. Both biotin-BTC and the test Fab samples are incubated for 30 minutes at room temperature. The pre-incubated samples were then added to the cell plate at 100 μl per well in duplicate and incubated for 1 hour on ice. […]
Measurements were performed on Attune Flow Cytometry machine. Data were analysed using the Flow Jo software. The live cell populations analysed were gated in forward and side scattering (FSC-A/SSC-A dot plot). The interval gate was established on the control histogram, which was obtained with sample incubated in streptavidin-Alexa Fluor488 only, and subsequently, determined percent of positive binding events of cells carrying membrane-bound receptor ErbB1 or ErbB4 and biotin-BTC. The median of fluorescence intensity (MFI) value was also derived for the live cell population. […]

The target of experiment [4] is T1, Human VEGF165. Kind of experiment: competition ELISA: antibody pre-incubated with 400 pM VEGF-biotin, added to coated VEGFR2, streptavidin-HRP detection; y axis OD. As to the method:
as §1
The source holds these as a separate data set.

In experiment [5] the target is T1, Human VEGF165. Described as above. As to the method:
as §1
The source holds these as a separate data set.

In experiment [6] the target is T3, membrane-bound human BTC on 293F-hBTC cells (human, UniProt P35070 32-111).
T3 construct: the transfected construct is not described; also called membrane-anchored BTC
T3 sequence: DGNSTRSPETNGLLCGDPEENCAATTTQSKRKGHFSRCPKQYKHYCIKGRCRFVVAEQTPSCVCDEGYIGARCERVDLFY
Description: flow cytometry on 293F cells with membrane-bound human BTC, anti-human Fab detection. As to the method: After washing the cells, the cells were dissociated using Versene at 37° C. The cells were washed with FACS buffer and plated at 100 μl in a 96 well plate using cells at 1×10⁶ cells/ml. Then 100 μl of a serial dilution of antibodies starting at 50 nM was used. The cells were incubated, washed and then treated with the secondary anti-human Fab-FITC antibody. The antibodies only bound to the cells expressing BTC. After which the cells were washed and analyzed on the Attune Flow Cytometry. All data analysis was carried out using Flow Jo software.

A further experiment has as its target T4, Human BTC (human, UniProt P35070 32-111).
T4 construct: Soluble human BTC of the Biacore, ELISA, MSD and cell assays; also called human betacellulin; soluble human BTC
T4 sequence: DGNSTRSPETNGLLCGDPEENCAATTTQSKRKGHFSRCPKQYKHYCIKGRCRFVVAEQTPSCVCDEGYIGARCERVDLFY
Kind of experiment: sandwich ELISA: BTC coated, Fab titrated, detection with VEGF-biotin (bridging readout). As to the method: A sandwich enzyme linked immunosorbent assay (ELISA) was performed by coating either BTC or VEGF, then adding a titration of NVS11 followed by detection with the second target, either biotinylated BTC or biotinylated VEGF. […] Neither of the single Fabs, NVS1 or NVS8, could bind to both BTC and VEGF at the same time.

Read-outs that look alike come from different tables or passages of the source.

T1 sequence (P15692 other isoform, or with tags, fused parts or gaps): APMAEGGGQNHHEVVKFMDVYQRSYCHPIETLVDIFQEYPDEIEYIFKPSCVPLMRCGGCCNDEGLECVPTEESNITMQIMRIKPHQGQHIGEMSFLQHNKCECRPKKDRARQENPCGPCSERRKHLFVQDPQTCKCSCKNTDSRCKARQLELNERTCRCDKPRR

B1: NVS8 (Fab, V domains shown)
VH: EVQLVESGGGLVQPGGSLRLSCTASGFSLTDYYYMTWVRQAPGKGLEWVGFIDPDDDPYYATWAKGRFTISRDNSKNTLYLQMNSLRAEDTAVYYCAGGDHNSGWGLDIWGQGTLVTVSS
VL: EIVMTQSPSTLSASVGDRVIITCQASEIIHSWLAWYQQKPGKAPKLLIYLASTLASGVPSRFSGSGSGAEFTLTISSLQPDDFATYYCQNVYLASTNGANFGQGTKLTVLK
notes: Fab version of the anti-VEGF 1008 scFv; also called anti-VEGF Fab
Turning to B1, the values for the IC50 with Human VEGF165 [1], in the experiment with Human VEGF165 [4] and with Human VEGF165 [5] were 1.35 nM, 1.35 nM and 0.737 nM, respectively. In addition, the “IC50 (read off the curve)” value with Human VEGF165 [2] is ~0.7 nM. Also, the Kd in the experiment with Human VEGF165 [3] was determined as 0.003 nM. In addition, the results for the binding result (in the experiment with Human BTC-avitag-biotin; in experiment [6]; with Human BTC) were “no binding (tested: about 25 nM)”, “no binding (tested: about 25 nM)” and “no binding (tested: about 10-20 nM (last marker hidden))”, respectively.
